Results as given in patent US20240043883A1 (Board of Trustees of Michigan State University, priority 2021, published 2024).
Where a chain is given by its changes, count along the chain named. Names may count otherwise.

B1: Corynebacterium glutamicum Cg10062 variant E114D, SEQ ID NO: 61 (Corynebacterium glutamicum ATCC 13032; E115D) (protein)
chain: PTYTCWSQRIRISREAKQRIAEAITDAHHELAHAPKYLVQVIFNEVEPDSYFIAAQSASENHIWVQATIRSGRTEKQKEELLLRLTQEIALILGIPNEEVWVYITEIPGSNMTDYGRLLMEPGEEEKWFNSLPEGLRERLTELEGSSEENLYFQGLEHHHHHH
B2: Corynebacterium glutamicum Cg10062 variant E114Q, SEQ ID NO: 60 (Corynebacterium glutamicum ATCC 13032; E115Q) (protein)
chain: B1 chain with D114Q
B3: Corynebacterium glutamicum Cg10062 variant E114D-Y103F, SEQ ID NO: 71 (Corynebacterium glutamicum ATCC 13032; E115D/Y104F) (protein)
chain: B1 chain with Y103F
B4: Cg10062: Tautomerase superfamily enzyme from Corynebacterium glutamicum, SEQ ID NO: 21; His6-tagged form SEQ ID NO: 59 (protein)
chain: PTYTCWSQRIRISREAKQRIAEAITDAHHELAHAPKYLVQVIFNEVEPDSYFIAAQSASENHIWVQATIRSGRTEKQKEELLLRLTQEIALILGIPNEEVWVYITEIPGSNMTEYGRLLMEPGEEEKWFNSLPEGLRERLTELEGSSE
modifications: Cg10062 from Corynebacterium glutamicum codon-optimized for Escherichia coli
B5: R73A: Cg10062 variant with R73A mutation, SEQ ID NO: 28 and 66 (protein)
chain: B4 chain with R73A
modifications: Cg10062(R73A) from Corynebacterium glutamicum codon-optimized for Escherichia coli
B6: Cg10062(E114D): Previously described Cg10062 variant with E114D mutation, SEQ ID NO: 23 and 61 (protein)
chain: B4 chain with E114D
modifications: Cg10062(E114D) from Corynebacterium glutamicum codon-optimized for Escherichia coli
B7: R70K: Cg10062 variant with R70K mutation, SEQ ID NO: 27 and 65 (protein)
chain: B4 chain with R70K
modifications: Cg10062(R70K) from Corynebacterium glutamicum codon-optimized for Escherichia coli
B8: E114A: Cg10062 variant with E114A mutation, SEQ ID NO: 32 and 70 (protein)
chain: B4 chain with E114A
modifications: Cg10062(E114A) from Corynebacterium glutamicum codon-optimized for Escherichia coli
B9: R70A: Cg10062 variant with R70A mutation, SEQ ID NO: 26 and 64 (protein)
chain: B4 chain with R70A
modifications: Cg10062(R70A) from Corynebacterium glutamicum codon-optimized for Escherichia coli
B10: Cg10062(E114Q): Previously described Cg10062 variant with E114Q mutation, SEQ ID NO: 22 and 60 (protein)
chain: B4 chain with E114Q
modifications: Cg10062(E114Q) from Corynebacterium glutamicum codon-optimized for Escherichia coli
B11: Cg10062(E114N): Novel hydratase-only Cg10062 variant with E114N mutation, SEQ ID NO: 24 and 62 (protein)
chain: B4 chain with E114N
modifications: Cg10062(E114N) from Corynebacterium glutamicum codon-optimized for Escherichia coli
B12: Cg10062(E114D-Y103F): Cg10062 double variant E114D-Y103F, SEQ ID NO: 33 and 71 (protein)
chain: B4 chain with Y103F, E114D
modifications: Cg10062(E114D-Y103F) from Corynebacterium glutamicum codon-optimized for Escherichia coli
B13: H28A: Cg10062 variant with H28A mutation, SEQ ID NO: 25 and 63 (protein)
chain: B4 chain with H28A
modifications: Cg10062(H28A) from Corynebacterium glutamicum codon-optimized for Escherichia coli
B14: Y103A: Cg10062 variant with Y103A mutation, SEQ ID NO: 30 and 68 (protein)
chain: B4 chain with Y103A
modifications: Cg10062(Y103A) from Corynebacterium glutamicum codon-optimized for Escherichia coli
B15: Y103F: Cg10062 variant with Y103F mutation, SEQ ID NO: 31 and 69 (protein)
chain: B4 chain with Y103F
modifications: Cg10062(Y103F) from Corynebacterium glutamicum codon-optimized for Escherichia coli
B16: Corynebacterium glutamicum Cg10062 variant E114N, SEQ ID NO: 62 (Corynebacterium glutamicum ATCC 13032; E115N) (protein)
chain: B1 chain with D114N
B17: Corynebacterium glutamicum Cg10062, wild-type, SEQ ID NO: 59 (Corynebacterium glutamicum ATCC 13032) (protein)
chain: B1 chain with D114E

Substrate: C#CC(=O)O
Test: purified protein, by the assay type
Type: biochemical, Corynebacterium glutamicum
Conditions: other: ACA, 100 mM sodium phosphate pH 8.0, 25 °C
Procedure: (§1) Steady-state kinetics were carried out using a Molecular Devices SpectraMax iD3 multi-mode microplate reader and Shimadzu UV2600 spectrophotometer. All assays were carried out in triplicate at 25° C. in 100 mM sodium phosphate pH 8.0 with a final volume of 200 μL, unless otherwise specified. The reduction of acetaldehyde by NADH-dependent alcohol dehydrogenase (ADH) was monitored by following the oxidation of NADH at 340 nm (ε=6220 M^−1 cm^−1).
(§2) All stock solutions, except ADH, required for the kinetics assays used for determining hydratase and hydratase/decarboxylase activities were prepared in 100 mM sodium phosphate pH 8.0. […] Stock solutions of ADH were prepared using deionized water, as recommended by the manufacturer. […] The final pH of each assay was 8.
(§3) The amount of enzyme used in each assay was varied in order to observe measurable activity. Thus, the rates obtained from this experiment were not used directly to compare the enzyme activity. These activities were only used for establishing the product profile of each enzyme. The ratios of MSA and acetaldehyde formed by each enzyme was determined by the coupled enzyme assay (FIG. 13), using the differences in rates in the presence and absence of MSAD (Table 10). […] All other components used for steady-state kinetics were identical to those used in the initial screening assays.

| Molecule | Km [µM] | kcat [s⁻¹] | kcat/Km [M⁻¹ s⁻¹] |
| --- | --- | --- | --- |
| B1 | 557 ± 62 | 1.12 ± 0.05 | 2000 ± 200 |
| B2 | 64 ± 12 | 0.66 ± 0.04 | 10800 ± 2100 |
| B3 | 72 ± 7 | 0.34 ± 0.01 | 4700 ± 500 |

Test system: not listed separately
Test: Coupled enzyme assay (ADH, with and without MSAD): hydratase and hydratase/decarboxylase activity and product profile of Cg10062 and variants
Type: biochemical
Conditions: ACA 0.5 mM, pH 8; enzyme final concentration differs per variant (0.025-1.50 mg mL^−1), rates not directly comparable
Procedure: as §1, §2, §3

| Molecule | Rate in the absence of MSAD | Rate in the presence of MSAD |
| --- | --- | --- |
| B4 | 120 µM/min | 146 µM/min |
| B5 | no activity | no activity |
| B6 | no activity | 90 µM/min |
| B7 | no activity | no activity |
| B8 | 11 µM/min | 15 µM/min |
| B9 | no activity | no activity |
| B10 | no activity | 102 µM/min |
| B11 | no activity | 67 µM/min |
| B12 | no activity | 39 µM/min |
| B13 | 4.5 µM/min | 12 µM/min |
| B14 | 16 µM/min | 38 µM/min |
| B15 | 43 µM/min | 65 µM/min |

Same assay, conditions: from Cg10062 activity in the presence and absence of MSAD; * from non-enzymatic decarboxylation of malonate semialdehyde

| Molecule | Product Ratio (%) acetaldehyde |
| --- | --- |
| B4 | 81% |
| B6 | <1* % |
| B10 | <1* % |
| B11 | <1* % |
| B12 | <1* % |

Same assay, conditions: from Cg10062 activity in the presence and absence of MSAD; ACA substrate, pH 8.0, 25° C.

| Molecule | Product Ratio (%) malonate semialdehyde [%] |
| --- | --- |
| B4 | 19 |
| B6 | >99 |
| B10 | >99 |
| B11 | >99 |
| B12 | >99 |

Same assay, conditions: in words

| Molecule | product of ACA hydration |
| --- | --- |
| B11 | produces only malonic semialdehyde |

Test system: not given
Test: not given
Conditions: background statement; cited from earlier work

| Molecule | acetaldehyde in product mixture from ACA [%] | malonate semialdehyde in product mixture from ACA [%] |
| --- | --- | --- |
| B4 | 75 | 25 |

Same assay, conditions: previously described variants, in words; cited from earlier work

| Molecule | activity relative to the Cg10062 | product of ACA hydration |
| --- | --- | --- |
| B6 | significantly lower activity | MSA exclusively |
| B10 | significantly lower activity | MSA exclusively |

Substrate: C#CC(=O)O
Test: purified protein, by the assay type
Conditions: other: ACA, 100 mM sodium phosphate pH 8.0, 25 °C
Remark: another data set of the same source

| Molecule | Km [µM] | kcat [s⁻¹] | kcat/Km [M⁻¹ s⁻¹] |
| --- | --- | --- | --- |
| B16 | 45 ± 1 |  |  |
| B17 | 66 ± 4 | 8.21 | 124000 |
